These results are taken from patent US20210388087A1 (Chugai, published 2021).

Residue numbers refer to the chain shown, from its start. In names and notes the source's numbering stands.

B1: CE115HA000 I51E one-arm antibody (antibody, human IgG1, kappa, L234A L235A, N297A, name in Kabat numbering)
heavy: QVQLVESGGGVVQPGRSLRLSCAASGFTFSNAWMHWVRQAPGKGLEWVAQEKAKSNNYATYYAESVKGRFTISRDDSKNSLYLQMNSLKTEDTAVYYCRYVHYGAYYGVDAWGQGTTVTVSSASTKGPSVFPLAPSSKSTSGGTAALGCLVKDYFPEPVTVSWNSGALTSGVHTFPAVLQSSGLYSLSSVVTVPSSSLGTQTYICNVNHKPSNTKVDKKVEPKSCDKTHTCPPCPAPEAAGGPSVFLFPPKPKDTLMISRTPEVTCVVVDVSHEDPEVKFNWYVDGVEVHNAKTKPREEQYASTYRVVSVLTVLHQDWLNGKEYKCKVSNKALPAPIEKTISKAKGQPREPQVYTLPPSRCELTKNQVSLSCAVKGFYPSDIAVEWESNGQPENNYKTTPPVLDSDGSFFLVSKLTVDKSRWQQGNVFSCSVMHEALHNHYTQKSLSLSPDYKDDDDK
chain: EPKSSDKTHTCPPCPAPELLGGPSVFLFPPKPKDTLMISRTPEVTCVVVDVSHEDPEVKFNWYVDGVEVHNAKTKPREEQYNSTYRVVSVLTVLHQDWLNGKEYKCKVSNKALPAPIEKTISKAKGQPREPQVCTLPPSRDELTKNQVSLWCLVKGFYPSDIAVEWESNGQPENNYKTTPPVLDSDGSFFLYSKLTVDKSRWQQGNVFSCSVMHEALHNRYTQKSLSLSP
light: DIVMTQSPLSLPVTPGEPASISCRSSQSLVHSNRNTYLHWYQQKPGQAPRLLIYKVSNRFSGVPDRFSGSGSGTDFTLKISRVEAEDVGVYYCGQGTQVPYTFGQGTKLEIKRTVAAPSVFIFPPSDEQLKSGTASVVCLLNNFYPREAKVQWKVDNALQSGNSQESVTEQDSKDSTYSLSSTLTLSKADYEKHKVYACEVTHQGLSSPVTKSFNRGEC
B2: CE115HA000 K52W one-arm antibody (antibody, human IgG1, kappa, L234A L235A, N297A, name in Kabat numbering)
heavy: B1 heavy with E51I, K52W
chain: B1 chain
light: B1 light
B3: CE115HA000 K52Y one-arm antibody (antibody, human IgG1, kappa, L234A L235A, N297A, name in Kabat numbering)
heavy: B1 heavy with E51I, K52Y
chain: B1 chain
light: B1 light
B4: CE115HA000 K43Q one-arm antibody (antibody, human IgG1, kappa, L234A L235A, N297A, name in Kabat numbering)
heavy: B1 heavy with K43Q, E51I
chain: B1 chain
light: B1 light
B5: CE115HA000 K52N one-arm antibody (antibody, human IgG1, kappa, L234A L235A, N297A, name in Kabat numbering)
heavy: B1 heavy with E51I, K52N
chain: B1 chain
light: B1 light
B6: CE115HA000 K52bS one-arm antibody (antibody, human IgG1, kappa, L234A L235A, N297A, name in Kabat numbering)
heavy: B1 heavy with E51I, K54S
chain: B1 chain
light: B1 light
B7: CE115HA000 K52bD one-arm antibody (antibody, human IgG1, kappa, L234A L235A, N297A, name in Kabat numbering)
heavy: B1 heavy with E51I, K54D
chain: B1 chain
light: B1 light
B8: CE115HA000 K52I one-arm antibody (antibody, human IgG1, kappa, L234A L235A, N297A, name in Kabat numbering)
heavy: B1 heavy with E51I, K52I
chain: B1 chain
light: B1 light
B9: CE115HA000 K43E one-arm antibody (antibody, human IgG1, kappa, L234A L235A, N297A, name in Kabat numbering)
heavy: B1 heavy with K43E, E51I
chain: B1 chain
light: B1 light
B10: CE115HA000 K52H one-arm antibody (antibody, human IgG1, kappa, L234A L235A, N297A, name in Kabat numbering)
heavy: B1 heavy with E51I, K52H
chain: B1 chain
light: B1 light
B11: CE115HA000 K52bL one-arm antibody (antibody, human IgG1, kappa, L234A L235A, N297A, name in Kabat numbering)
heavy: B1 heavy with E51I, K54L
chain: B1 chain
light: B1 light
B12: CE115HA000 K52bQ one-arm antibody (antibody, human IgG1, kappa, L234A L235A, N297A, name in Kabat numbering)
heavy: B1 heavy with E51I, K54Q
chain: B1 chain
light: B1 light
B13: CE115HA000 K52F one-arm antibody (antibody, human IgG1, kappa, L234A L235A, N297A, name in Kabat numbering)
heavy: B1 heavy with E51I, K52F
chain: B1 chain
light: B1 light
B14: CE115HA000 K52bR one-arm antibody (antibody, human IgG1, kappa, L234A L235A, N297A, name in Kabat numbering)
heavy: B1 heavy with E51I, K54R
chain: B1 chain
light: B1 light
B15: CE115HA000 K52bN one-arm antibody (antibody, human IgG1, kappa, L234A L235A, N297A, name in Kabat numbering)
heavy: B1 heavy with E51I, K54N
chain: B1 chain
light: B1 light
B16: CE115HA000 K52R one-arm antibody (antibody, human IgG1, kappa, L234A L235A, N297A, name in Kabat numbering)
heavy: B1 heavy with E51I, K52R
chain: B1 chain
light: B1 light
B17: CE115HA000 K52S one-arm antibody (antibody, human IgG1, kappa, L234A L235A, N297A, name in Kabat numbering)
heavy: B1 heavy with E51I, K52S
chain: B1 chain
light: B1 light
B18: CE115HA000 K52bA one-arm antibody (antibody, human IgG1, kappa, L234A L235A, N297A, name in Kabat numbering)
heavy: B1 heavy with E51I, K54A
chain: B1 chain
light: B1 light
B19: CE115HA000 K52D one-arm antibody (antibody, human IgG1, kappa, L234A L235A, N297A, name in Kabat numbering)
heavy: B1 heavy with E51I, K52D
chain: B1 chain
light: B1 light
B20: CE115HA000 K52bY one-arm antibody (antibody, human IgG1, kappa, L234A L235A, N297A, name in Kabat numbering)
heavy: B1 heavy with E51I, K54Y
chain: B1 chain
light: B1 light
B21: CE115HA000 K52E one-arm antibody (antibody, human IgG1, kappa, L234A L235A, N297A, name in Kabat numbering)
heavy: B1 heavy with E51I, K52E
chain: B1 chain
light: B1 light

T1 sequence (P07766 23-126): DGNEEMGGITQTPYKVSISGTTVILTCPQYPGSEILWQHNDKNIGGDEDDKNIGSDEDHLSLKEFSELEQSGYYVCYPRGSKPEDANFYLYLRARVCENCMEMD

The experiment concerns the target T1, CD3 epsilon homodimer protein (UniProt P07766 23-126).
T1 construct: immobilized on Sensor chip CM4 by amine coupling; also called CD3 (CD3 epsilon)
Nature of the experiment: SPR (Biacore T200), CD3 epsilon homodimer on CM4 chip, one-arm antibody as analyte, 25 C.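 Also: homodimer attached to the sensor surface via amine coupling, HBS-EP+ used as running buffer during binding runs.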
B1: the “ratio of amounts bound (altered form / CE115HA000)” value was 0.55.

Take B2: the “ratio of amounts bound (altered form / CE115HA000)” value amounted to 0.22.

On to B3, for which the “ratio of amounts bound (altered form / CE115HA000)” value stood at 0.18.

On to B4, for which the “ratio of amounts bound (altered form / CE115HA000)” value amounted to 0.99.

As to B5, the “ratio of amounts bound (altered form / CE115HA000)” value was 0.34.

In the case of B6, the “ratio of amounts bound (altered form / CE115HA000)” value amounted to 0.68.

Regarding B7, the “ratio of amounts bound (altered form / CE115HA000)” value worked out at 0.27.

As for B8, the “ratio of amounts bound (altered form / CE115HA000)” value was 0.33.

Consider B9, for which the “ratio of amounts bound (altered form / CE115HA000)” value was 0.9.

B10: the “ratio of amounts bound (altered form / CE115HA000)” value was determined as 0.22.

In the case of B11, the “ratio of amounts bound (altered form / CE115HA000)” value amounted to 0.61.

As for B12, the “ratio of amounts bound (altered form / CE115HA000)” value turned out to be 0.6.

With B13, the “ratio of amounts bound (altered form / CE115HA000)” value amounted to 0.17.

For the molecule B14, the “ratio of amounts bound (altered form / CE115HA000)” value was 1.11.

As to B15, the “ratio of amounts bound (altered form / CE115HA000)” value was 0.27.

Turning to B16, the “ratio of amounts bound (altered form / CE115HA000)” value is 0.91.

In the case of B17, the “ratio of amounts bound (altered form / CE115HA000)” value came out at 0.28.

Consider B18, for which the “ratio of amounts bound (altered form / CE115HA000)” value was 0.67.

Turning to B19, the “ratio of amounts bound (altered form / CE115HA000)” value was determined as 0.25.

Regarding B20, the “ratio of amounts bound (altered form / CE115HA000)” value stood at 0.74.

Turning to B21, the “ratio of amounts bound (altered form / CE115HA000)” value worked out at 0.26.
